Measured values: patent publication US20220227850A1 (CRESCENDO BIOLOGICS, published 2022)

What was measured:
Cyno Serum Albumin [1] = molecular target: T1, Cyno Serum Albumin (cyno, UniProt A2V9Z4 25-608); test: SPR, Biacore T200, single cycle kinetics, albumin amine coupled to CM5 chip, 25 C, pH 6.0
T1 construct: Serum purified CSA (Abcam ab184894) is named for immunisation; also called CSA; cynomolgus serum albumin
Experimental: (§1) Binding studies with human, cyno and mouse serum albumin in pH 7.4 and pH 6.0 were carried out using single cycle kinetics on a Biacore T200. Serum albumin (HSA, CSA, MSA) were coupled to CM5 chip by amine coupling using the amine reagent coupling kit GE Healthcare BR-1000-50. The surface of the chip was activated according to manufacturer's instructions. Serum albumin (HSA, CSA, MSA) were captured and cross-linked to the sensor chip surface by injecting of serum albumin (HSA, CSA, MSA) in 10 mM sodium acetate, pH 5.0. Following with the injection of 1M Ethanolamine to stabilise the serum albumin on the surface. With this procedure around 300 RU were immobilized.
(§2) For kinetics measurement four-fold serial dilution of the VH single domain antibodies (194D04-2 or 191 E02-2) in either PBST pH 7.4 or PBST pH 6.0 were injected with 120s association and 300s dissociation at the flow rate of 45 μl/min at 25° C. Binding response was corrected by subtracting both the blank flow cell and from buffer run on the same flow cell. The traces were fitted using 1:1 model.

Human Serum Albumin [2] = molecular target: T2, Human Serum Albumin (human, UniProt P02768 25-609); test: as above
T2 construct: also called HSA
Experimental: as §1, §2

mouse serum albumin = molecular target: T3, mouse serum albumin (mouse, UniProt P07724 25-608); test: SPR, Biacore T200, single cycle kinetics, MSA amine coupled to CM5 chip, pH 7.4
T3 construct: also called MSA
Experimental: as §1, §2

Cyno Serum Albumin [3] = molecular target: T1, Cyno Serum Albumin; test: SPR, Biacore T200, single cycle kinetics, albumin amine coupled to CM5 chip, 25 C, pH 7.4
Experimental: as §1, §2

Human Serum Albumin [4] = molecular target: T2, Human Serum Albumin; test: as above
Experimental: as §1, §2

| Binder | Kd (Cyno Serum Albumin [1]) | koff (Cyno Serum Albumin [1]) | kon (Cyno Serum Albumin [1]) | Kd (Human Serum Albumin [2]) | koff (Human Serum Albumin [2]) | kon (Human Serum Albumin [2]) | binding result (mouse serum albumin) | Kd (Cyno Serum Albumin [3]) | koff (Cyno Serum Albumin [3]) | kon (Cyno Serum Albumin [3]) | Kd (Human Serum Albumin [4]) | koff (Human Serum Albumin [4]) | kon (Human Serum Albumin [4]) |
| --- | --- | --- | --- | --- | --- | --- | --- | --- | --- | --- | --- | --- | --- |
| SEQ ID NO. 5 (VH single domain antibody binding HSA) (VHH, Human VH single domain antibody (Humabody) from a transgenic mouse, not a camelid VHH; also called Humabody 2; Humabody VH) VHH: EVQLLESGGGLVKPGGSLRLSCAASGFTVSSYTMNWVRQAPGKGLEWVSSISSSGRYIYYADSVKGRFTISRDNAKNSLYLQMNSLRAEDTAVYYCARDPRMVGNPHEFDIWGQGTMVTVSS | 4.9 nM | 0.0032 s⁻¹ | 640000 M⁻¹ s⁻¹ | 37 nM | 0.031 s⁻¹ | 840000 M⁻¹ s⁻¹ | no binding | 11 nM | 0.0065 s⁻¹ | 570000 M⁻¹ s⁻¹ | 30 nM | 0.019 s⁻¹ | 620000 M⁻¹ s⁻¹ |
| SEQ ID NO. 30 (VH single domain antibody binding HSA, variant of SEQ ID NO. 1) (VHH, Human VH single domain antibody (Humabody) from a transgenic mouse, not a camelid VHH; also called Humabody VH; variant of Humabody 1) VHH: EVQLVESGGGLVKPGGSLRLSCAASGFTFSNYNMNWVRQAPGKGLEWVSSISSAGTHIYYADSVKGRFTISRDNAKNSLYLQMNSLRAEDTAVYYCARDPHSTGWYKDFDYWGQGTLVTVSS | 99 nM | 0.0644 s⁻¹ | 640000 M⁻¹ s⁻¹ | 600 nM | 0.32 s⁻¹ | 530000 M⁻¹ s⁻¹ | no binding | 100 nM | 0.041 s⁻¹ | 290000 M⁻¹ s⁻¹ | 590 nM | 0.19 s⁻¹ | 330000 M⁻¹ s⁻¹ |
